The series deals with the molecule itself. Put plainly: SEC; gel filtration analysis of S. aureus MvaA protein; conditions not told in the text (Supplementary Fig. 9). In general terms: SEC sorts molecules by how far they enter the pores of the column.

B1: S. aureus MvaA protein (HMG-CoA reductase), His-tag fused recombinant wild-type (enzyme, Staphylococcus aureus (strain RN4220), UniProt Q9FD86 1-425, looked up)
chain: MQSLDKNFRHLSRQQKLQQLVDKQWLSEDQFDILLNHPLIDEEVANSLIENVIAQGALPVGLLPNIIVDDKAYVVPMMVEEPSVVAAASYGAKLVNQTGGFKTVSSERIMIGQIVFDGVDDTEKLSADIKALEKQIHKIADEAYPSIKARGGGYQRIAIDTFPEQQLLSLKVFVDTKDAMGANMLNTILEAITAFLKNESPQSDILMSILSNHATASVVKVQGEIDVKDLARGERTGEEVAKRMERASVLAQVDIHRAATHNKGVMNGIHAVVLATGNDTRGAEASAHAYASRDGQYRGIATWRYDQKRQRLIGTIEVPMTLAIVGGGTKVLPIAKASLELLNVDSAQELGHVVAAVGLAQNFAACRALVSEGIQQGHMSLQYKSLAIVVGAKGDEIAQVAEALKQEPRANTQVAERILQEIRQQ
notes: MvaA protein (HMG-CoA reductase) of Staphylococcus aureus RN4220; mvaA gene amplified by PCR from chromosomal DNA with primers FmvaA-His and RmvaA-His and ligated into pET28a in-frame with the N-terminal histidine tag; also called SaMvaA; WT MvaA; source: E. coli BL21(DE3)pLysS, purified (nickel-chelating resin, dialysis)
By stoichiometry N is commonly meant the number of molecules, sites or subunits per partner or assembly. On to B1, for which the “stoichiometry N” value amounted to 2.

(Values after paper PMC4790635, “A critical role of mevalonate for peptidoglycan synthesis in Staphylococcus aureus” (Scientific Reports, 2016).)
